Results on two molecules are retold here after publication PMC4379015, “Chemical and Thermal Unfolding of a Global Staphylococcal Virulence Regulator with a Flexible C-Terminal End” (PLoS ONE, 2015).

Data set [1] relates to rSarA (Staphylococcus aureus strain Newman). The data set can be described thus: EMSA. The conditions noted are these: Gel shift buffer not stated (performed as reported earlier); rSarA kept in buffer A: 20 mM phosphate pH 8.0, 100 mM NaCl, 5% glycerol; binding temperature not …. Background: Mobility shift assays separate free from complexed probe on a gel.
Data set [2] deals with the molecule itself. The data set is described as follows: SEC; analytical gel filtration of rSarA (20 uM) without denaturant; apparent mass from the elution volumes of monomeric marker proteins. In general terms: Size exclusion chromatography separates by hydrodynamic size, large species first.

Consider hla DNA, for which, in data set [1], the K half was 286 nM.

B1: rSarA (a C-terminally histidine-tagged SarA) (natural protein)
chain: MAITKINDCFELLSMVTYADKLKSLIKKEFSISFEEFAVLTYISENKEKEYYLKDIINHLNYKQPQVVKAVKILSQEDYFDKKRNEHDERTVLILVNAQQRKKIESLLSRVNKRITEANNEIEL
notes: the cloning attached eight additional residues at the C-terminal end of SarA; Leu 125 and Glu 126 of rSarA lie in the tag; also called recombinant SarA; not shown: His6 (eight additional residues including six histidine residues), C-terminal, kept
The stoichiometry N is the number of molecules, sites or subunits per partner or assembly. Regarding B1, the “stoichiometry N” value in data set [2] turned out to be 2.
